Test [1] addresses T1, human protein arginine deiminase 4 (hPAD4), wild type (human, UniProt Q9UM07, biotin on the N-terminal AviTag).
T1 construct: Protein arginine deiminase 4, human; 'full length hPAD4 (74 kDa)'; PreScission or TEV site between the tags and PAD4; Tags were captured on streptavidin in BLI and ELISA; In solution it is in a dimer-monomer equilibrium; also called hPADI4; WT hPAD4; source: BirA-expressing E. coli (C43 (DE3) Pro+ or BL21 Gold (DE3)), purified (Ni-NTA, 0.5 mM TCEP); not shown: AviTag, N-terminal, kept
Description: negative-stain EM; hPAD4 incubated with Fab fragments in equimolar amounts; 2D micrographs; uranyl formate stain. Particulars: both partners purified.

The next test deals with T2, hPAD4 Y435A (human, UniProt Q9UM07, Y435A).
T2 construct: Protein arginine deiminase 4, human, point mutant; Mutant of the hPAD4 construct m1; source: cloned and expressed as hPAD4 (E. coli, Ni-NTA)
T2 sequence (Q9UM07 whole entry Y435A): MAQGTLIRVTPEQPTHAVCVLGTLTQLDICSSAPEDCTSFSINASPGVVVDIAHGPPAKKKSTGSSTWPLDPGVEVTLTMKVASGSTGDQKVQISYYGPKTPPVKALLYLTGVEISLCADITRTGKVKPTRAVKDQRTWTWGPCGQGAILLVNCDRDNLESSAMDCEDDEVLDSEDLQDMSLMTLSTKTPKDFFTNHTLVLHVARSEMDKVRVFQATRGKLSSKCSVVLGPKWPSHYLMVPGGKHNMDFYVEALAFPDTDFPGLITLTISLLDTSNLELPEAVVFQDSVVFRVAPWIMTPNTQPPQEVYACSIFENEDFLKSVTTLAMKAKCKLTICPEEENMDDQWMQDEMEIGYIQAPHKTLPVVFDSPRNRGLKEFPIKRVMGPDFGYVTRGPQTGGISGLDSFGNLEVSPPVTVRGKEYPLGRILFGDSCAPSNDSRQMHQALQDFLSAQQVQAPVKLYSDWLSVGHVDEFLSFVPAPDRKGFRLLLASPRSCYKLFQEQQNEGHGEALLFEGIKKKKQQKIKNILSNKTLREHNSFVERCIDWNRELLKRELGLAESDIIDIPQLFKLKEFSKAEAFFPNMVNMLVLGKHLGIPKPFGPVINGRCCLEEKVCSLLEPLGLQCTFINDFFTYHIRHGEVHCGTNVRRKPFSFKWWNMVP
Description: BLI; Octet RED384; biotinylated hPAD4 (WT or mutant) on streptavidin biosensors, purified binder as analyte; TBSTB; calcium concentration not told for these experiments; 1:1 monovalent model. Particulars: both partners purified.

The target of test [2] is T3, hPAD4 R8E–Y435A double mutant (human, UniProt Q9UM07, R8E | Y435A).
T3 construct: Protein arginine deiminase 4, human, double mutant; Mutant of the hPAD4 construct m1; also called R8E/Y435 double mutant; source: cloned and expressed as hPAD4 (E. coli, Ni-NTA)
T3 sequence (Q9UM07 whole entry R8E/Y435A): as the sequence (Q9UM07 whole entry Y435A) above, with R8E counted along it
The test is described as above. Particulars: both partners purified.

The target in another test is T4, hPAD4 R8E (human, UniProt Q9UM07, R8E).
T4 construct: Protein arginine deiminase 4, human, point mutant; Mutant of the hPAD4 construct m1; source: cloned and expressed as hPAD4 (E. coli, Ni-NTA)
T4 sequence (Q9UM07 whole entry R8E): as the sequence (Q9UM07 whole entry Y435A) above, with R8E, A435Y counted along it
The description is as above. The following applies: both partners purified.

The target of the next test is T5, PAD2 (Homo sapiens (assumed), UniProt Q9Y2J8).
T5 construct: PAD2, commercially available; also called protein arginine deiminase 2
T5 sequence (Q9Y2J8 whole entry): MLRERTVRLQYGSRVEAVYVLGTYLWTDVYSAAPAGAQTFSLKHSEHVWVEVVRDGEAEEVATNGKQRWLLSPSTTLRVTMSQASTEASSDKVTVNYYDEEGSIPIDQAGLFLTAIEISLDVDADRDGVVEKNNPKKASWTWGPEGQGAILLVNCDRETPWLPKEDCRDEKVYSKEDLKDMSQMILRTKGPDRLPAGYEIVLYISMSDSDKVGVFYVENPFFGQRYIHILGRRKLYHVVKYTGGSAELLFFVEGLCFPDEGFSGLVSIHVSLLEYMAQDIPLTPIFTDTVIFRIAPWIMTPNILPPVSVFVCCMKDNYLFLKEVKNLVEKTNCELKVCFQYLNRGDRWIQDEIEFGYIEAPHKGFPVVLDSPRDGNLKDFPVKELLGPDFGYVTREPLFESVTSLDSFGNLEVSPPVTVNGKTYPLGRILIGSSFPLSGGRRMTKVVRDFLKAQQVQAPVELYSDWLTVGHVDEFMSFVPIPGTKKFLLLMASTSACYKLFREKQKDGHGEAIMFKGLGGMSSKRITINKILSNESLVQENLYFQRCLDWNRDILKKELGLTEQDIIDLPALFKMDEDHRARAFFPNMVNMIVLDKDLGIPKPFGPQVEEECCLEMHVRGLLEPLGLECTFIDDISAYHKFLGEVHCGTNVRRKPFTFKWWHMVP
Briefly: BLI; binding of the functional human antibodies to PAD4, PAD2 and PAD3; who was immobilised and the antibody format are not told for this experiment. Particulars: both partners purified.

Test [3] deals with T1, human protein arginine deiminase 4 …. Described as above. Particulars: both partners purified.
Test [4] has the same target. Description: BLI; Octet RED384; biotinylated hPAD4 on streptavidin biosensors, antibody (IgG by the legend) as analyte; TBSTB; 2 and 10 mM Ca2+; 1:1 monovalent model. The following applies: both partners purified.
Test [5] addresses T6, mouse protein arginine deiminase 4 (mPAD4) (Mus musculus, UniProt Q9Z183, biotin on the N-terminal AviTag).
T6 construct: Protein arginine deiminase 4, mouse; PreScission or TEV site between the tags and PAD4; also called murine PAD4; source: BirA-expressing E. coli (C43 (DE3) Pro+ or BL21 Gold (DE3)), purified (Ni-NTA, 0.5 mM TCEP); not shown: AviTag, N-terminal, kept
Description: BLI; Octet RED384; biotinylated mPAD4 on streptavidin biosensors, antibody as analyte; TBSTB; 10 mM Ca2+. Particulars: both partners purified.

For test [6], the target named is T6, mouse protein arginine deiminase 4 …. Briefly: BLI; Octet RED384; biotinylated mPAD4 on streptavidin biosensors, antibody as analyte; TBSTB; calcium-free form of mPAD4. Particulars: both partners purified.
Test [7] deals with T1, human protein arginine deiminase 4 …. Description: cell-based or functional assay.
Test [8] shares this target. Briefly: BLI; Octet RED384; biotinylated hPAD4 (WT or mutant) on streptavidin biosensors, purified binder as analyte; TBSTB; calcium concentration not told for these experiments; 1:1 monovalent model. Particulars: both partners purified.
For another test, the target named is T7, PAD3 (Homo sapiens (assumed), UniProt Q9ULW8).
T7 construct: PAD3, commercially available; also called protein arginine deiminase 3
T7 sequence (Q9ULW8 whole entry): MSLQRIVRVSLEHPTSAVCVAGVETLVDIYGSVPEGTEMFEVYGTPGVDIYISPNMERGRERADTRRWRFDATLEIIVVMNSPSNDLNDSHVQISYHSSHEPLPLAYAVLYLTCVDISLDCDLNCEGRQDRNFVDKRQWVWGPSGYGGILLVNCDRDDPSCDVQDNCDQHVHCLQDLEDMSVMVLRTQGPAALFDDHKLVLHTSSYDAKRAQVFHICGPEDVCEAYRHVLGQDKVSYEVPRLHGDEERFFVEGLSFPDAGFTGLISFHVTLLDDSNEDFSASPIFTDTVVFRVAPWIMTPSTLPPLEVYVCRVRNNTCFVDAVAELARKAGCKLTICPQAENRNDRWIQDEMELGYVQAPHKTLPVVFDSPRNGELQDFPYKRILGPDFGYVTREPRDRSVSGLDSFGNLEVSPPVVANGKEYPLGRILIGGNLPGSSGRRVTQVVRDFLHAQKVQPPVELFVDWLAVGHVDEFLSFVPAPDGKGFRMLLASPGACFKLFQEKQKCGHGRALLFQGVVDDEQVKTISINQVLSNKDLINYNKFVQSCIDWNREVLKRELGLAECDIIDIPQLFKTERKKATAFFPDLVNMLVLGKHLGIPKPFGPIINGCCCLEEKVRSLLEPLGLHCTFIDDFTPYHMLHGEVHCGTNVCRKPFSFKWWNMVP
Description: BLI; binding of the functional human antibodies to PAD4, PAD2 and PAD3; who was immobilised and the antibody format are not told for this experiment. The following applies: both partners purified.

The values that follow come from PMC11142921, “Antibody discovery identifies regulatory mechanisms of protein arginine deiminase 4” (Nature Chemical Biology, 2024).

T1 sequence (Q9UM07 whole entry): as the sequence (Q9UM07 whole entry Y435A) above, with A435Y counted along it
T6 sequence (Q9Z183 whole entry): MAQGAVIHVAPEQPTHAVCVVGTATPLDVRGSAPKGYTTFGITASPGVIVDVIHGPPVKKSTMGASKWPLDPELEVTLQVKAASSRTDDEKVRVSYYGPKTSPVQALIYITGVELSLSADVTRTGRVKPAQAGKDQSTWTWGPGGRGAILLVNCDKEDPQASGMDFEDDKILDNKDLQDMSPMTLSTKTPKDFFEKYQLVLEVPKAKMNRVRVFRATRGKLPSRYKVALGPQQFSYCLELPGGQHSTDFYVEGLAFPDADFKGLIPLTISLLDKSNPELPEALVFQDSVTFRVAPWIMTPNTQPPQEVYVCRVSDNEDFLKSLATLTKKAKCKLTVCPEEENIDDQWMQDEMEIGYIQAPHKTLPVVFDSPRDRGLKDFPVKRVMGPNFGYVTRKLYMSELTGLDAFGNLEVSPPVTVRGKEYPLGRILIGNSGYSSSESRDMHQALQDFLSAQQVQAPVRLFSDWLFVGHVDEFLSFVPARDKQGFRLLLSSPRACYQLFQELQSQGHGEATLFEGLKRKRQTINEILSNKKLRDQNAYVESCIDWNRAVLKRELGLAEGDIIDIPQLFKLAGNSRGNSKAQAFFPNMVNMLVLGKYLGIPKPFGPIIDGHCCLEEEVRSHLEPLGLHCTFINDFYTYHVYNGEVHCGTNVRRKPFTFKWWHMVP

B1: hI281 Fab (Fab, V domains shown)
VH: EVQLVESGGGLVQPGGSLRLSCAASGFNVSYSSIHWVRQAPGKGLEWVASIYPYYGSTSYADSVKGRFTISADTSKNTAYLQMNSLRAEDTAVYYCARQMYYWMFSKLALDYWGQGTLVTVSS
VL: DIQMTQSPSSLSASVGDRVTITCRASQSVSSAVAWYQQKPGKAPKLLIYSASSLYSGVPSRFSGSRSGTDFTLTISSLQPEDFATYYCQQSYYRTLFTFGQGTKVEIK
notes: Fab heavy chain of hI281; light chain of hI281; From synthetic Fab-phage library E (4D5-type scaffold); also called Fab-hI281; source: E. coli C43 (DE3) Pro+, purified (Ni-NTA)
Regarding B1, the binding result in [1] was “binds”.

B2: hA362 Fab (Fab, V domains shown)
VH: EVQLVESGGGLVQPGGSLRLSCAASGFNVSYYSIHWVRQAPGKGLEWVASISPYYGSTYYADSVKGRFTISADTSKNTAYLQMNSLRAEDTAVYYCARHPYRKGYSGLDYWGQGTLVTVSS
VL: DIQMTQSPSSLSASVGDRVTITCRASQSVSSAVAWYQQKPGKAPKLLIYSASSLYSGVPSRFSGSRSGTDFTLTISSLQPEDFATYYCQQSSYLPLFTFGQGTKVEIK
notes: Fab heavy chain of hA362; light chain of hA362; also called Fab hA362; source: E. coli C43 (DE3) Pro+, purified (Ni-NTA)
For the molecule B2, the binding result in test [1] was “binds”. For the same molecule, the figures for the “fold decrease of binding affinity against WT hPAD4” value (with hPAD4 Y435A; in test [2]; with hPAD4 R8E) were ~10 fold, ~160 fold and ~3 fold, respectively.

B3: hA362 IgG (antibody, V domains shown)
VH: EVQLVESGGGLVQPGGSLRLSCAASGFNVSYYSIHWVRQAPGKGLEWVASISPYYGSTYYADSVKGRFTISADTSKNTAYLQMNSLRAEDTAVYYCARHPYRKGYSGLDYWGQGTLVTVSS
VL: DIQMTQSPSSLSASVGDRVTITCRASQSVSSAVAWYQQKPGKAPKLLIYSASSLYSGVPSRFSGSRSGTDFTLTISSLQPEDFATYYCQQSSYLPLFTFGQGTKVEIK
notes: heavy chain of hA362 fused to hIgG1-Fc (pFUSE-hIgG1-Fc); as the light chain of m13; IgG1; source: Expi293, transiently cotransfected, purified (protein A or Ni-NTA); copies: 2 + 2
Turning to B3, the results for the binding result (with PAD2; in test [3]) were “no binding” and “binds”, respectively.

B4: hI281 IgG (antibody, V domains shown)
VH: EVQLVESGGGLVQPGGSLRLSCAASGFNVSYSSIHWVRQAPGKGLEWVASIYPYYGSTSYADSVKGRFTISADTSKNTAYLQMNSLRAEDTAVYYCARQMYYWMFSKLALDYWGQGTLVTVSS
VL: DIQMTQSPSSLSASVGDRVTITCRASQSVSSAVAWYQQKPGKAPKLLIYSASSLYSGVPSRFSGSRSGTDFTLTISSLQPEDFATYYCQQSYYRTLFTFGQGTKVEIK
notes: heavy chain of hI281 fused to hIgG1-Fc (pFUSE-hIgG1-Fc); as the light chain of m10; IgG1; source: Expi293, transiently cotransfected, purified (protein A or Ni-NTA); copies: 2 + 2
Consider B4, for which the binding result in test [4] is “binds”.

B5: mA342-c3 (antibody, V domains shown)
VH: EVQLVESGGGLVQPGGSLRLSCAASGFNVYSSSIHWVRQAPGKGLEWVASISSSSGYTYYADSVKGRFTISADTSKNTAYLQMNSLRAEDTAVYYCARYSASIYYYSGYPAYHAGLDYWGQGTLVTVSS
VL: DIQMTQSPSSLSASVGDRVTITCRASQSVSSAVAWYQQKPGKAPKLLIYSASSLYSGVPSRFSGSRSGTDFTLTISSLQPEDFATYYCQQWSYSRLATFGQGTKVEIK
notes: as the heavy chain of m20 with the stated changes; as the light chain of m20 with the stated change; The text names it mA342-c3, the legends mA342-c4
As for B5, in [5], the binding result is listed as “binds”.

B6: mA342 IgG (antibody, V domains shown)
VH: EVQLVESGGGLVQPGGSLRLSCAASGFNVYSSSIHWVRQAPGKGLEWVASISSSSGYTYYADSVKGRFTISADTSKNTAYLQMNSLRAEDTAVYYCARYSYSIYYYSGYPYYHMGLDYWGQGTLVTVSS
VL: DIQMTQSPSSLSASVGDRVTITCRASQSVSSAVAWYQQKPGKAPKLLIYSASSLYSGVPSRFSGSRSGTDFTLTISSLQPEDFATYYCQQWSYSRLITFGQGTKVEIK
notes: heavy chain of mA342 fused to hIgG1-Fc (pFUSE-hIgG1-Fc); light chain of mA342; also called WT mA342; source: Expi293, transiently cotransfected, purified (protein A or Ni-NTA); copies: 2 + 2
B6: the Kd was < 1 nM in [5] and 200000 nM in [6].

B7: hA288 Fab (Fab, V domains shown)
VH: EVQLVESGGGLVQPGGSLRLSCAASGFNVYYSSIHWVRQAPGKGLEWVASIYSYSGSTSYADSVKGRFTISADTSKNTAYLQMNSLRAEDTAVYYCARYWPKMAGYWYIYRFALDYWGQGTLVTVSS
VL: DIQMTQSPSSLSASVGDRVTITCRASQSVSSAVAWYQQKPGKAPKLLIYSASSLYSGVPSRFSGSRSGTDFTLTISSLQPEDFATYYCQQYRQYNLITFGQGTKVEIK
notes: Fab heavy chain of hA288; light chain of hA288; source: E. coli C43 (DE3) Pro+, purified (Ni-NTA)
Consider B7, for which the binding result in [1] is “binds”.

B8: E3 (affinity-matured variant of hI365) (antibody, V domains shown)
VH: EVQLVESGGGLVQPGGSLRLSCAASGFNFFYSIHWVRQAPGKGLEWVASISPYTDYTSYADSVKGRFTISADTSKNTAYLQMNSLRAEDTAVYYCARKHPGSYPFWGFALDYWGQGTLVTVSS
VL: DIQMTQSPSSLSASVGDRVTITCRASQSVSSAVAWYQQKPGKAPKLLIYSASSLYSGVPSRFSGSRSGTDFTLTISSLQPEDFATYYCQQSSSSLVTFGQGTKVEIK
As for B8, in test [7], the “IC50 of PAD4 inhibition” value was found to be 94 nM and the “IC50 of inhibition of PAD4 citrullination of histone H3 (western blot)” value was 95 nM.

B9: hI364 IgG (antibody, V domains shown)
VH: EVQLVESGGGLVQPGGSLRLSCAASGFNVYSSSIHWVRQAPGKGLEWVASISSSSGSTSYADSVKGRFTISADTSKNTAYLQMNSLRAEDTAVYYCARYSDHYYYWSYWSSWYSGLDYWGQGTLVTVSS
VL: DIQMTQSPSSLSASVGDRVTITCRASQSVSSAVAWYQQKPGKAPKLLIYSASSLYSGVPSRFSGSRSGTDFTLTISSLQPEDFATYYCQQSSSSLITFGQGTKVEIK
notes: heavy chain of hI364 fused to hIgG1-Fc (pFUSE-hIgG1-Fc); light chain of hI364; The activity screen and the selection were done with the Fab form; source: Expi293, transiently cotransfected, purified (protein A or Ni-NTA); copies: 2 + 2
Regarding B9, the Kd in test [4] worked out at 0.64 nM.

B10: hI365 IgG (antibody, V domains shown)
VH: EVQLVESGGGLVQPGGSLRLSCAASGFNFYYSIHWVRQAPGKGLEWVASISPYSGYTSYADSVKGRFTISADTSKNTAYLQMNSLRAEDTAVYYCARKHPGSYPFWGWALDYWGQGTLVTVSS
VL: DIQMTQSPSSLSASVGDRVTITCRASQSVSSAVAWYQQKPGKAPKLLIYSASSLYSGVPSRFSGSRSGTDFTLTISSLQPEDFATYYCQQSSSSLVTFGQGTKVEIK
notes: heavy chain of hI365 fused to hIgG1-Fc (pFUSE-hIgG1-Fc); as the light chain of m16; also called WT hI365; source: Expi293, transiently cotransfected, purified (protein A or Ni-NTA); copies: 2 + 2
Turning to B10, in test [4], the Kd was determined as 1.2 nM.

B11: hI365 G58D (antibody, V domains shown)
VH: EVQLVESGGGLVQPGGSLRLSCAASGFNFYYSIHWVRQAPGKGLEWVASISPYSDYTSYADSVKGRFTISADTSKNTAYLQMNSLRAEDTAVYYCARKHPGSYPFWGWALDYWGQGTLVTVSS
VL: DIQMTQSPSSLSASVGDRVTITCRASQSVSSAVAWYQQKPGKAPKLLIYSASSLYSGVPSRFSGSRSGTDFTLTISSLQPEDFATYYCQQSSSSLVTFGQGTKVEIK
notes: as the heavy chain of hI365 with the stated change; as the light chain of hI365; also called mutant G58D
Consider B11, for which the binding result in [8] is “binds”.

B12: E6 (affinity-matured variant of hI365) (antibody, V domains shown)
VH: EVQLVESGGGLVQPGGSLRLSCAASGFNFYYSIHWVRQAPGKGLEWVASISPYTDRTSYADSVKGRFTISADTSKNTAYLQMNSLRAEDTAVYYCARKHPGRYPNWGFALDYWGQGTLVTVSS
VL: DIQMTQSPSSLSASVGDRVTITCRASQSVSSAVAWYQQKPGKAPKLLIYSASSLYSGVPSRFSGSRSGTDFTLTISSLQPEDFATYYCQQSMSSQLVTFGQGTKVEIK
notes: variant of the heavy chain of hI365 from soft-randomisation libraries; variant of the light chain of hI365; CDR L3 of ten amino acids; also called clone E6
Take B12: the “IC50 of inhibition of PAD4 citrullination of histone H3 (western blot)” value in [7] was found to be 13 nM. In the test with PAD3, the binding result is listed as “no binding”.
